Test results as given in paper PMC7939381, “MMP activation–associated aminopeptidase N reveals a bivalent 14-3-3 binding motif” (The Journal of Biological Chemistry, 2020).
Primed or numbered codes have the meaning given here. Where no end group is shown, it is not given here. [ ]: non-standard residue; d: D form. The star is where a group is joined. FITC = O=C1OC2(c3ccc(O)cc3Oc3cc(O)ccc32)c2ccc(NC(=S)*)cc21; pT = C[C@@H](OP(=O)(O)O)[C@H](N)C(=O)O; pS = N[C@@H](COP(=O)(O)O)C(=O)O; PEG2″ = not defined here

T1: 14-3-3β/α, full length, N-terminally His6-tagged (human, UniProt P31946 1-246)
T1 construct: 14-3-3 beta/alpha, human, full length; also called His6-14-3-3β/α; source: E. coli BL21(DE3), purified (HisTrap, SEC); also in E. coli cell lysate (pulldown); not shown: His6, N-terminal, kept
T1 sequence (looked up): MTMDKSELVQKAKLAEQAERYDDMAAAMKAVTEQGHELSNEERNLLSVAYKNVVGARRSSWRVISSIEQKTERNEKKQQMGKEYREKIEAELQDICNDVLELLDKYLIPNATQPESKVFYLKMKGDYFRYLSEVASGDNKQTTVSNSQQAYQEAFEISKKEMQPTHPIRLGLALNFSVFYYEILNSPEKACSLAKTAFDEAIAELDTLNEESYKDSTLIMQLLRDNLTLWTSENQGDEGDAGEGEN

T2: 14-3-3σ, full length, N-terminally His6-tagged (human, UniProt P31947 1-248)
T2 construct: 14-3-3 sigma (stratifin), human, full length; no tag cleavage is described for the full-length proteins; also called stratifin; SFN; source: E. coli BL21(DE3), purified (HisTrap, SEC)
T2 sequence (looked up): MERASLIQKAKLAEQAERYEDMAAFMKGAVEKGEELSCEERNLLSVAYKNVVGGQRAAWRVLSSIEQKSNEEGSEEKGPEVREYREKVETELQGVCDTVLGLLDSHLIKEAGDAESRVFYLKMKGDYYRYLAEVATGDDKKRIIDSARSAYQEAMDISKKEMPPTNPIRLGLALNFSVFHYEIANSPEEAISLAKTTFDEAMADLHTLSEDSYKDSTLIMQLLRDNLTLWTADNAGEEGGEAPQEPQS

T3: 14-3-3γ, full length, N-terminally His6-tagged (human, UniProt P61981 1-247)
T3 construct: 14-3-3 gamma, human, full length; source: E. coli BL21(DE3), purified (HisTrap, SEC)
T3 sequence (looked up): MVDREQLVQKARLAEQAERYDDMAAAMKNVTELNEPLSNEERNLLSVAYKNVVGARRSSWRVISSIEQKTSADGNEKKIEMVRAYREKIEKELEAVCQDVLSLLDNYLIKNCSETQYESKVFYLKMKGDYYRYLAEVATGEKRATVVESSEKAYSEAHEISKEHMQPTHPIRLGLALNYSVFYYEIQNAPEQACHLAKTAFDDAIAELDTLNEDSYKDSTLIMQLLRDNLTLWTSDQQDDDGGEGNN

T4: 14-3-3ε, full length, N-terminally His6-tagged (human, UniProt P62258 1-255)
T4 construct: 14-3-3 epsilon, human, full length; source: E. coli BL21(DE3), purified (HisTrap, SEC)
T4 sequence (looked up): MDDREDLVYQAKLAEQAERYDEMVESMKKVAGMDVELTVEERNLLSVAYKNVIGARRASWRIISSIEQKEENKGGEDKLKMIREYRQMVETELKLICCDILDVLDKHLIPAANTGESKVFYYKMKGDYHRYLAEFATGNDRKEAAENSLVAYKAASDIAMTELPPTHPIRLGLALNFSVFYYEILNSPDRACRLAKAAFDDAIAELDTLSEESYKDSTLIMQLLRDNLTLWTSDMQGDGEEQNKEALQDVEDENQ

T5: 14-3-3θ, full length, N-terminally His6-tagged (human, UniProt P27348 1-245)
T5 construct: 14-3-3 theta (printed as τ in the introduction, θ in the results), human, full length; also called 14-3-3τ; source: E. coli BL21(DE3), purified (HisTrap, SEC)
T5 sequence (looked up): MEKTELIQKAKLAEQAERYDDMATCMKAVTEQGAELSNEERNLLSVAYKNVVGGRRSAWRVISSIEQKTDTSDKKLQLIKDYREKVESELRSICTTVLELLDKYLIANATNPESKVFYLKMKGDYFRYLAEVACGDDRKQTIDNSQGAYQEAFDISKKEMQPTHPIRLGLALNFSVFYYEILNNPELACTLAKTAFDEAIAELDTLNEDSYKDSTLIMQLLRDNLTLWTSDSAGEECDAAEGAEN

T6: 14-3-3ζ, full length, N-terminally His6-tagged (human, UniProt P63104 1-245)
T6 construct: 14-3-3 zeta, human, full length; source: E. coli BL21(DE3), purified (HisTrap, SEC)
T6 sequence (looked up): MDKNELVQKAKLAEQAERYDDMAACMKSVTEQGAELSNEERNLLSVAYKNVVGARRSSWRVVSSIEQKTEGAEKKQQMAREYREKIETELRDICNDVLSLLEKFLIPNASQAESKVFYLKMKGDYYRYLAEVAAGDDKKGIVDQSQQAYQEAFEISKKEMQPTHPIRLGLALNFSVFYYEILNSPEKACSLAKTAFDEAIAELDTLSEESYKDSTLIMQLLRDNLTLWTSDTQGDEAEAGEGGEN

B1: 14-3-3σ ΔC (aa 1–231) (domain or fragment, human, UniProt P31947 1-231, looked up)
chain: MERASLIQKAKLAEQAERYEDMAAFMKGAVEKGEELSCEERNLLSVAYKNVVGGQRAAWRVLSSIEQKSNEEGSEEKGPEVREYREKVETELQGVCDTVLGLLDSHLIKEAGDAESRVFYLKMKGDYYRYLAEVATGDDKKRIIDSARSAYQEAMDISKKEMPPTNPIRLGLALNFSVFHYEIANSPEEAISLAKTTFDEAMADLHTLSEDSYKDSTLIMQLLRDNLTLWT
notes: 14-3-3 sigma (stratifin), human, C-terminally truncated, residues 1-231; One monomer per asymmetric unit; the biological dimer is generated by crystallographic symmetry; also called 14-3-3 ΔC aa 1–231; source: E. coli BL21(DE3), purified (HisTrap, TEV cleavage, reverse HisTrap, SEC); not shown: His6, N-terminal, cleaved
B2: peptide 14, monophosphorylated APN 9-mer (noncanonical site of peptide 10) (peptide)
chain: TTNPASATT
modifications: also: one phosphorylated Ser/Thr within Ser61–Thr64
B3: acetylated (label-free, unlabeled) peptide 1, APN 38–46 pSer43 (peptide)
peptide: Ac-NKNAN[pS]SPV
notes: aminopeptidase N (APN, CD13), human, residues 38-46; also called acetylated peptide 1; label-free peptide 1; source: synthetic peptide (Fmoc SPPS, HPLC purified)
B4: FITC-labeled peptide 1, APN 38–46 pSer43 (peptide)
peptide: {FITC-PEG2″}-NKNAN[pS]SPV
notes: aminopeptidase N (APN, CD13), human, residues 38-46; also called site 1; source: synthetic peptide (Fmoc SPPS, HPLC purified)
B5: peptide 1, APN 38–46 pSer43, as used in ITC (peptide)
peptide: NKNAN[pS]SPV
notes: aminopeptidase N (APN, CD13), human, residues 38-46; source: synthetic peptide (Fmoc SPPS, HPLC purified)
B6: peptide 11, APN 36–73 pSer43 pThr63, as used in ITC and co-crystallisation (peptide, UniProt P15144 36-73, looked up)
peptide: EKNKNAN[pS]SPVASTTPSASATTNPASA[pT]TLDQSKAWNR
notes: aminopeptidase N (APN, CD13), human, residues 36-73; also called bis-phosphorylated peptide 11; source: synthetic peptide (Fmoc SPPS, HPLC purified)
B7: peptide 15, monophosphorylated APN 9-mer pThr63 (site 2) (peptide)
chain: NPASA[pT]TLD
B8: peptide 16, monophosphorylated APN 9-mer (noncanonical site of peptide 12) (peptide)
chain: PASATTLDQ
modifications: also: one phosphorylated Ser/Thr within Ser61–Thr64
B9: 14-3-3η, full length, N-terminally His6-tagged (natural protein, human, UniProt Q04917 1-246, looked up)
chain: MGDREQLLQRARLAEQAERYDDMASAMKAVTELNEPLSNEDRNLLSVAYKNVVGARRSSWRVISSIEQKTMADGNEKKLEKVKAYREKIEKELETVCNDVLSLLDKFLIKNCNDFQYESKVFYLKMKGDYYRYLAEVASGEKKNSVVEASEAAYKEAFEISKEQMQPTHPIRLGLALNFSVFYYEIQNAPEQACLLAKQAFDDAIAELDTLNEDSYKDSTLIMQLLRDNLTLWTSDQQDEEAGEGN
notes: 14-3-3 eta, human, full length; also called His6-14-3-3η; source: E. coli BL21(DE3), purified (HisTrap, SEC); also in E. coli cell lysate (pulldown); not shown: His6, N-terminal, kept
B10: acetylated (unlabeled) RAF1 peptide (peptide)
peptide: Ac-RQRST[pS]TPN
notes: source: synthetic peptide (Fmoc SPPS, HPLC purified)

Key:
[1] = molecular target: the molecule itself; assay: crystal structure; 14-3-3σ ΔC (12.5 g/l) mixed 1:2 with peptide 1; sitting drops, 100 mM HEPES pH 7.3, 0.19 M CaCl2, 5% glycerol, 28% PEG400, 4 °C; space group C222(1), 1.60 Å
[2] = molecular target: B9; assay: fluorescence polarisation; direct binding: dilution series of 14-3-3 protein added to FITC-labeled peptide (30 nM stock, 5 µl in 15 µl); 10 mM HEPES pH 7.4, 150 mM NaCl, 2 mM DTT, 0.01% Tween 20; 60 min at room temperature, read at 25 °C; four-parameter fit; settings: both partners purified
[3] = molecular target: T1, 14-3-3β/α, full length, N-terminally …; assay: as above; settings: both partners purified
[4] = molecular target: T2, 14-3-3σ, full length, N-terminally …; assay: fluorescence polarisation; competition: dilution series of acetylated peptide (starting concentration 4000 µM) added to a premixed complex of 14-3-3σ (3 µM) and FITC-labeled RAF1 tracer (30 nM); 10 mM HEPES pH 7.4, 150 mM NaCl, 2 mM DTT, 0.01% Tween 20; 25 °C; settings: both partners purified
[5] = molecular target: T3, 14-3-3γ, full length, N-terminally …; assay: fluorescence polarisation; direct binding: dilution series of 14-3-3 protein added to FITC-labeled peptide (30 nM stock, 5 µl in 15 µl); 10 mM HEPES pH 7.4, 150 mM NaCl, 2 mM DTT, 0.01% Tween 20; 60 min at room temperature, read at 25 °C; four-parameter fit; settings: both partners purified
[6] = molecular target: T2, 14-3-3σ, full length, N-terminally …; assay: as above; settings: both partners purified
[7] = molecular target: T4, 14-3-3ε, full length, N-terminally …; assay: as above; settings: both partners purified
[8] = molecular target: T5, 14-3-3θ, full length, N-terminally …; assay: as above; settings: both partners purified
[9] = molecular target: T6, 14-3-3ζ, full length, N-terminally …; assay: as above; settings: both partners purified
[10] = molecular target: B9; assay: ITC; 14-3-3η (500 µM; 250 µM for peptide 11) titrated into peptide (50 µM; 12.5 µM for peptide 11), 18 injections; 50 mM HEPES pH 7.4, 250 mM NaCl, 20 mM MgCl2; 25 °C; settings: both partners purified
14-3-3σ ΔC (aa 1–231) = molecular target: B1; assay: crystal structure; 14-3-3σ ΔC co-crystallised with peptide 11; sitting drops, 100 mM HEPES pH 7.7, 0.19 M CaCl2, 5% glycerol, 27% PEG400; space group C222(1), 1.20 Å; also solved in P1; settings: both partners purified
[11] = molecular target: B5; assay: ITC; 14-3-3η (500 µM; 250 µM for peptide 11) titrated into peptide (50 µM; 12.5 µM for peptide 11), 18 injections; 50 mM HEPES pH 7.4, 250 mM NaCl, 20 mM MgCl2; 25 °C; settings: both partners purified

## B1
[1]
  binding result: binds

## B2
[2]
  Kd: > 40 µM
[3]
  Kd: > 40 µM

## B3
[4]
  IC50: 18.8 ± 1.5 µM

## B4
[5]
  binding result: binds
[6]
  Kd: 1.7 ± 0.1 µM
[7]
  binding result: binds
[8]
  binding result: binds
[9]
  binding result: binds
[2]
  Kd: 0.32 ± 0.04 µM

## B5
[10]
  Kd: 2.18 µM

## B6
14-3-3σ ΔC (aa 1–231)
  binding result: binds

## B7
[2]
  Kd: > 40 µM
[3]
  Kd: > 40 µM

## B8
[2]
  Kd: > 40 µM
[3]
  Kd: > 40 µM

## B9
[11]
  stoichiometry N: 1.05

## B10
[4]
  IC50: 13.4 ± 0.7 µM
